Laboratory results taken from US20250101071A1 (PAUL EHRLICH INSTITUT BUNDESINSTITUT F R IMPFSTOFFE UND …, published 2025).

B1: DARPin 53.A8 (designed binder)
chain: DLGKKLLEATRAGQDDEVRILMANGANVNATDEEGLTPLHLAALDGHLEIVEVLLKYGADVNADDMHGPTPLHLAAYAGHLEIVEVLLKYGADVNAYDCGGHTPLHLAARLGHLEIVEVLLKYGADVNAQDKFGKTPFDLAIDNGNEDIAEVLQKAA
B2: recombinant human CD32a extracellular domain with C-terminal His-tag, biotinylated (H167R) (receptor)
chain: QAAAPPKAVLKLEPPWINVLQEDSVTLTCQGARSPESDSIQWFHNGNLIPTHTQPSYRFKANNNDSGEYTCQTGQTSLSDPVHLTVLSEWLVLQTPHLEFQEGETIMLRCHSWKDKPLVKVTFFQNGKSQKFSRLDPTFSIPQANHSHSGDYHCTGNIGYTLFSSKPVTITVQVPSMGSSSPMG
notes: also called CD32a-His; recombinant CD32a protein; not shown: C-terminal His-tag

Assays:
Experiment in all cases: SPR, Biacore T200, biotinylated CD32a on neutravidin chip, DARPin as analyte
[1] = molecular target: B2
DARPin 53.2.F11 = molecular target: DARPin 53.2.F11
DARPin 52.H6 = molecular target: DARPin 52.H6
DARPin 53.C8 = molecular target: DARPin 53.C8
DARPin 53.2F11[TEV] = molecular target: DARPin 53.2F11[TEV]
DARPin 53.H3 = molecular target: DARPin 53.H3
DARPin 53.D8 = molecular target: DARPin 53.D8

Measured: Kd

B1
< 2 nM: [1]

B2
not listed: [1]
< 2 nM: all other assays above
